For experiment [1], the target named is T1, soluble monomeric human TREM2 (human, UniProt Q9NZC2 19-174, limits assumed).
T1 construct: Not the same as shed sTREM2; also called soluble monomeric TREM2
T1 sequence: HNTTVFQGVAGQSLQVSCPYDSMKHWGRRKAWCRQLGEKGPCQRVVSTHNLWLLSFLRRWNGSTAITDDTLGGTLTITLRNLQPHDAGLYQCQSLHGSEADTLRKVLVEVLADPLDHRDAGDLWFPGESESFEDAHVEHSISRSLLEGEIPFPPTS
Kind of experiment: SPR (Biacore 8K); mutant IgG on anti-human Fab chip, soluble monomeric TREM2. The source says: The resulting library consists of individual IgG clones, each with one mutation per molecule in the heavy chain variable regions. Clones were screened for off-rate (dissociation rate) by SPR in a Biacore™ 8K instrument using anti-human Fab chips to capture mutant IgGs and soluble monomeric TREM2 as ligand.

Experiment [2] concerns the target T1, soluble monomeric human TREM2. Kind of experiment: SPR (Biacore T200), 37 C; IgG on anti-CH1 chip, soluble monomeric TREM2. (Surface plasmon resonance follows binding to a sensor surface in real time, without labels.)
Experiment [3] concerns the target T2, soluble human TREM2 (sTREM2) (human, UniProt Q9NZC2 19-157).
T2 construct: also called soluble TREM2; TREM2 ectodomain
T2 sequence: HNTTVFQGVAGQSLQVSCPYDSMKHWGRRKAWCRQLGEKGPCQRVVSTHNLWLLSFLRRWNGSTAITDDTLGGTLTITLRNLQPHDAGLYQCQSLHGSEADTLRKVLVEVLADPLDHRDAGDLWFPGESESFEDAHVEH
Kind of experiment: sandwich ELISA: test antibody coated as capture, sTREM2 from BMDM culture supernatant, biotinylated 3.17A9 as detection. An excerpt:
For example, as shown in an Example 11 herein, the human TREM2 ELISA assay measured binding of antibodies to sTREM2 by coating onto plate wells the antibody to be tested as capture reagents and with biotinylated IgV-reactive monoclonal antibody 3.17A9 used as the detection reagent. Control antibody 1.16B8 was used as a positive control antibody to establish the standard for sTREM2 binding.
A human TREM2 ELISA assay was used to measure binding of more than forty antibodies to soluble TREM2 (sTREM2) as follows: test anti-hTREM2 antibodies were coated onto plate wells as capture reagents and a biotinylated IgV-reactive monoclonal antibody, 3.17A9, was used as the detection reagent. Antibody 1.16B8 was used as a control antibody to establish the standard for sTREM2 binding. Plates coated with test or control antibody were incubated with diluted culture supernatant from bone marrow-derived macrophage (BMDM) cultures from transgenic mice expressing hTREM2. sTREM2 is constitutively produced by the BMDM cultures expressing hTREM2 and shed into the culture supernatant. Measurements were recorded at 450 nm for detection and 570 nm for background. The 3.17A9/1.16B8 antibody pair was selected over reagents provided in the R&D Systems kit as the commercial reagents were not compatible with sTREM2 detection of some of the antibodies tested. […]
For orientation: In an ELISA, binding on a coated surface is turned into a signal by an enzyme label.

Experiment [4] has as its target T3, human TREM2 on cells (human, UniProt Q9NZC2 19-230).
T3 sequence: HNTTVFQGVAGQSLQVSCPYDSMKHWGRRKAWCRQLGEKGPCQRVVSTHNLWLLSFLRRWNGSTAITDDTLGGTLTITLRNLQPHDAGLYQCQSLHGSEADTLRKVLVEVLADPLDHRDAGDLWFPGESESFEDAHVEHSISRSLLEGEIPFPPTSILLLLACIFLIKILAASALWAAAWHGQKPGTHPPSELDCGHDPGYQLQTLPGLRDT
Kind of experiment: cell-based or functional assay.

For experiment [5], the target named is T3, human TREM2 on cells. Kind of experiment: cell-based or functional assay. This is another data set of the same source.
Experiment [6] deals with T2, soluble human TREM2 (sTREM2). Kind of experiment: sandwich ELISA: antibody coated as capture, sTREM2 from BMDM supernatant, biotinylated 3.17A9 detection. The method, then: A human TREM2 ELISA assay was used to measure binding of more than forty antibodies to soluble TREM2 (sTREM2) as follows: test anti-hTREM2 antibodies were coated onto plate wells as capture reagents and a biotinylated IgV-reactive monoclonal antibody, 3.17A9, was used as the detection reagent. Antibody 1.16B8 was used as a control antibody to establish the standard for sTREM2 binding. Plates coated with test or control antibody were incubated with diluted culture supernatant from bone marrow-derived macrophage (BMDM) cultures from transgenic mice expressing hTREM2. sTREM2 is constitutively produced by the BMDM cultures expressing hTREM2 and shed into the culture supernatant. Measurements were recorded at 450 nm for detection and 570 nm for background. The 3.17A9/1.16B8 antibody pair was selected over reagents provided in the R&D Systems kit as the commercial reagents were not compatible with sTREM2 detection of some of the antibodies tested. Control antibody 1.16B8 light chain sequence is shown in SEQ ID NO: 170, and its heavy chain sequence is shown in SEQ ID NO: 171.

Experimental findings from US20220389097A1 (Genentech, published 2022) are described below.

B1: 3.10C2 D101E mutant IgG (antibody, name in Kabat numbering, V domains shown)
VH: EVQLVETGGSLVQPGKSLKLTCATSGFPFSNVWMHWVRQSPEKQLEWIAHIKAKSDNYATYYAESVKGRFTISRDDSKTSIYLQMNSLKEDDTAIYYCTGLEYWGQGVMVTVSS
VL: DTVLTQAPLSLSVTPGESASISCRSSKSLLGVRDITSLYWYLQKPGKSPQLLIYRMSNLASGVPDRFSGSGSETDFTLKISEVETEDVGVYYCAQFLRYPYTFGPGTKLELK
notes: IgG captured on anti-human Fab chip
For the molecule B1, the binding result in experiment [1] was “no binding”.

B2: hPara.09.v2 hIgG1 N297G (antibody, V domains shown)
VH: EVQLVESGGGLVQPGGSLKLSCATSGFPFSNVWLHWVRQASGKGPEWVAHIKAKSDNYATYYAESVKGRFTISRDDSKNTVYLQMNSLKTEDTAVYYCTDILEYWGQGTLVTVSS
VL: DVVMTQSPLSLPVTPGEPASISCRSSRSLLTSKGITSLYWYLQKPGQSPQLLIYRMSNLASGIPDRFSGSGSGTDFTLKISRVEAEDVGVYYCAQFLVYPYTFGQGTKVEIKR
notes: also called hPara.09.H5.hIgG1.N297G
As for B2, in experiment [2], the Kd was 0.016 nM, the dissociation rate constant (koff) worked out at 3.5e-05 s⁻¹ and the kon turned out to be 2.3e+06 M⁻¹ s⁻¹. Also, the binding result in experiment [3] is on record as “no binding”. For the same molecule, in experiment [4], the “EC50, average X04 plaque intensity, human iPSC-derived microglia plaque assay (FIG. 24C)” value was 320 nM; the “EC50, survival of iPSC-derived microglia (FIG. 23E)” value was determined as 65 pM; the “EC50, total Abeta plaque intensity, human iPSC-derived microglia plaque assay (FIG. 24B)” value was 330 nM; the “phospho-SYK/total SYK relative to anti-gD control, iPSC-derived microglia, 1 hour” value was 2 fold. Further, in experiment [4], the “phospho-SYK/total SYK relative to anti-gD control, iPSC-derived microglia, 4 hours” value is greater than 10 fold. Besides, in experiment [5], the “EC50, Jurkat NFAT luciferase reporter cells” value stood at 24.5 ng/mL and the “IC50, TREM2 shedding inhibition in Jurkat-NFAT reporter cells (sTREM2 ELISA)” value turned out to be 162 ng/mL.

B3: control antibody 1.16B8 (antibody, mouse IgG2a, kappa, V domains shown)
VH: EVQLVESGGGLVQPGRSLKLSCAASGFTFSDSAMAWVRQAPKKGLEWVATIIYDTSSTYYRDSVKGRFTISRDNAKSTLYLQMDSLRSEDTATYYCALFGVDVMDAWGQGASVTVSS
VL: DIQMTQTPSSMPASLGERVTISCRASQGISNYLNWYQQKPDGTIKPLIYYTSNLQSGVPSRFSGSGSGTDYSLTISSLEPEDFAMYYCQQYDSSPWTFGGGTKLEIKR
notes: also called CTL; 1.116B8
As to B3, the binding result in experiment [6] was “binds”.

Usually Kd stands for the constant that tells how readily two partners part at equilibrium. A higher Kd goes with a looser complex. For orientation: koff means the rate constant with which the complex falls apart. A word on the kon: it is the rate constant with which the complex forms. Read a high kon as fast association.
